In paper PMC4703881 one finds fraction of single-molecule traces with continued leading-strand synthesis data, which are given here for one substance.

In the assay the target is wild-type T7 DNA polymerase (gp5 with E. coli thioredoxin) (bacteriophage T7 | E. coli) (UniProt P00581).
Chain of wild-type T7 DNA polymerase (gp5 with E. coli thioredoxin) (bacteriophage T7 | E. coli) (P00581 whole entry, chain 1 of 2): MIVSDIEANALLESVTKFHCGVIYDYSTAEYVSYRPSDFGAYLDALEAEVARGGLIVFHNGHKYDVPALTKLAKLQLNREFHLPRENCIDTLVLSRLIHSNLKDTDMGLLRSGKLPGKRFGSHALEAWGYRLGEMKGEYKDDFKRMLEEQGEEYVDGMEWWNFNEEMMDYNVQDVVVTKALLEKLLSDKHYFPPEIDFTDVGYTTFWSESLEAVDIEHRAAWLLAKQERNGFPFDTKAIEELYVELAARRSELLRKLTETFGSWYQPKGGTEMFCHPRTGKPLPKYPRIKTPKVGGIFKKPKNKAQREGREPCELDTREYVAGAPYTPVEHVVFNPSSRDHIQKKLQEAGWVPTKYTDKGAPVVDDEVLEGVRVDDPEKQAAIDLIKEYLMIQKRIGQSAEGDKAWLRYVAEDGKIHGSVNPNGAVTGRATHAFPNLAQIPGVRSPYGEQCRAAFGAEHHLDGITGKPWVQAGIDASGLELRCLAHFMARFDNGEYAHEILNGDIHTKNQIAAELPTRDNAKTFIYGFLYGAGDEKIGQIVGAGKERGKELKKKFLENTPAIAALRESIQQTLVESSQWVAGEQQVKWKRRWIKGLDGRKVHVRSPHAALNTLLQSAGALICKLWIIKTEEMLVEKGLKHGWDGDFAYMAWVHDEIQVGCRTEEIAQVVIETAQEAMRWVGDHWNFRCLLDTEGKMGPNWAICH
Chain of wild-type T7 DNA polymerase (gp5 with E. coli thioredoxin) (bacteriophage T7 | E. coli) (P0AA25 whole entry, chain 2 of 2, further chain): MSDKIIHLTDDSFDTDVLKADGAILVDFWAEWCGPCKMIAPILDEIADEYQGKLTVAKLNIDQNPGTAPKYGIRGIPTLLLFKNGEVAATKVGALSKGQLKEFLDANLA

Chain of wild-type T7 helicase (gp4) (P03692 whole entry): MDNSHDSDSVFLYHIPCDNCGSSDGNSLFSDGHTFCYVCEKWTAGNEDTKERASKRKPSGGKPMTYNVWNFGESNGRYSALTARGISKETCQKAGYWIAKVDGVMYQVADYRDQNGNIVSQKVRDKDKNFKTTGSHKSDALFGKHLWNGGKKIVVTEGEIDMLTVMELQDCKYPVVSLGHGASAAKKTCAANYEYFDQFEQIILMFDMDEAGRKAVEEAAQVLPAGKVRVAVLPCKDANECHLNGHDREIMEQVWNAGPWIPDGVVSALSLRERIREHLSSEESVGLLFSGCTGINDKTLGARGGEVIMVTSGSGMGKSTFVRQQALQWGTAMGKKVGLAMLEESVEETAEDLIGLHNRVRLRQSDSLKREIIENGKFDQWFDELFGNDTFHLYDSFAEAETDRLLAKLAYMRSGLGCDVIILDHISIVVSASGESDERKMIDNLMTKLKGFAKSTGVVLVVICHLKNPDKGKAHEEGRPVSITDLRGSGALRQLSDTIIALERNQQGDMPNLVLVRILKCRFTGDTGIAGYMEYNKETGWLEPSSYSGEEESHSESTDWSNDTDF

“wild-type T7 helicase (gp4) (from UniProt P03692 1-566) (enzyme)”: the fraction of single-molecule traces with continued leading-strand synthesis at high rate past a leading-strand CPD lesion, wt DNAP with wt helicase, 6 pN, 0.5 mM dNTP was 28 % of traces.
